Data on two molecules can be found in paper PMC9969250.

Data set [1] addresses T1, Plasmodium falciparum lactate dehydrogenase (PfLDH) (Plasmodium falciparum, UniProt Q76NM3 1-316). Kind of data set: SPR.
Data set [2] deals with T1, Plasmodium falciparum lactate …. As to the kind of experiment: SPR. The source holds these as a separate data set. A general note: SPR reads the build-up and loss of mass on a sensor chip optically.

In general, Kd refers to the free concentration of one partner at which half of the binding sites on the other are occupied at equilibrium, for simple one-to-one binding. A low value points to tighter binding. Turning to TTTAGATCTTTGCCGCTGGGCGGTAGAACCATAGTGACCCAGCCGTCTAC (structured_DNA, biotin (position not given)) [biotinylated L2], the affinity in data set [1], expressed as Kd, was 66 ± 7 nM.

B1: nanotrain without L2 on SPR chip (NT0; 5'-biotin-D + C + B + A.1) (mixed)
DNA 1: CGGCAAAGATCTAAAGGCGACAAGGAAAATCCTTCAACGAAGTGGGTCGCCCTAACTCTCTATCCG
DNA 2: TTGAGCTGGTTGTATGGCGACAAGGAAAATCCTTCAACGAAGTGGGTCGCCGGATAGAGAGTTAGG
DNA 3: ATACAACCAGCTCAAGGCGACAAGGAAAATCCTTCAACGAAGTGGGTCGCCATTCATAAACATAAC
DNA 4: GGCGACAAGGAAAATCCTTCAACGAAGTGGGTCGCCGTTATGTTTATGAAT
modifications: 5' biotin on D
For B1, the binding result in data set [2] was “no binding”.
